Biological target: T1, OgeuIscB wild-type (human gut metagenome)
T1 chain: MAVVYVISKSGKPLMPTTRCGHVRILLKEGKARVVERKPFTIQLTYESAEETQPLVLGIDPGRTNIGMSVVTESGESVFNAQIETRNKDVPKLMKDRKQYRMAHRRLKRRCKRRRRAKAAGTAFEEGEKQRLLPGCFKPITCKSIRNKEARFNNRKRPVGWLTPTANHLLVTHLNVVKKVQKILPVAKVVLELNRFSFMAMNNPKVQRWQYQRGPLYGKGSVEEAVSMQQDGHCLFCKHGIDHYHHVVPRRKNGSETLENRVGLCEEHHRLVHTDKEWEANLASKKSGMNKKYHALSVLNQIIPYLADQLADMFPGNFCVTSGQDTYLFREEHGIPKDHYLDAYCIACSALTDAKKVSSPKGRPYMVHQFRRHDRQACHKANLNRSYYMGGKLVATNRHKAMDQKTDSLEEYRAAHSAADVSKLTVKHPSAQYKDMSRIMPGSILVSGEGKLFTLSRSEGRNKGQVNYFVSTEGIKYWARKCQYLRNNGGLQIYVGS
Assay: structure; cryo-EM of IscB-ωRNA/target DNA at 2.78 A; TAM 5'-CTAGAA-3' (ideal NWRRNA)
Conditions: label: 5' 6-FAM on non-target strand; partially mismatched bubble in protospacer
Protocol: IscB was incubated for 15 minutes at 37° C. with the target DNA in cleavage buffer. DNA was supplied at a 3 fold molar excess to IscB (0.5 mg/mL final concentration). 3.5 μL of were applied to a Quantifoil holey carbon grid (1.2/1.3, 200 mesh) which had been glow-discharged with 20 mA at 0.39 mBar for 30 seconds (PELCO easiGlow). Grids were blotted with Vitrobot blotting paper (Electron Microscopy Sciences) for 6.5 s at 4° C., 100% humidity, and plunge-frozen in liquid ethane using a Mark IV FEI/Thermo Fisher Vitrobot. Data were collected on a Krios G3i Cryo Transmission Electron Microscope (Thermo Scientific) with a Ceta 16M CMOS camera 300 kV, Gatan K3 direct electron detector. The total exposure time of each movie stack led to a total accumulated dose of 50 electrons per Å2 which fractionated into 50 frames. Dose-fractionated super-resolution movie stacks collected from the Gatan K3 direct electron detector were binned to a pixel size of 1.1 Å. The defocus value was set between −1.0 μm to −2.5 μm.

B1: OgeuIscB ωRNA with 16-nt guide ; cryo-EM target DNA (ssRNA ; dsDNA)
RNA: AAAAGAGUGAACGAGAGGCUCUUCCAACUUUAUGGUUGCGACCGUAGGUUGAAAGAGCACAGGCUGAGACAUUCGUAAGGCCGAAAGACCGGACGCACCCUGGGAUUUCCCCAGUCCCCGGAACUGCAUAGCGGAUGCCAGUUGAUGGAGCAAUCUAUCAGAUAAGCCAGGGGGAACAAUCACCUCUCUGUAUCAGAGAGAGUUUUACAAAAGGAGGAACGG
DNA 1: CGCCCCACGAGGGTACGGCAAAAGAGTTTTTTTTACTAGAAGTCGAGGTCAGCCCGTGGC
DNA 2: GCCACGGGCTGACCTCGACTTCTAGTCTCGTTCACTCTTTTGCCGTACCCTCGTGGGGCG
modifications: phosphorothioate at several positions of both strands (after G25-T31 region as marked by *)
Does B1 bind?
Result: binds
